From patent US20150126713A1 (Astellas, published 2015) come the findings set out here.

Substitutions are numbered along the chain they refer to.

Experiment [1] deals with T1, monkey IL-23R-mouse Fc fusion protein (monkey; mouse).
T1 construct: extracellular domain; also called monkey IL-23R-Fc fusion protein
Put plainly: antigen ELISA, monkey IL-23R-mouse Fc immobilized, HRP anti-human IgG, chemiluminescence. The method, then: (§1) The present inventors used an antigen ELISA to measure the antigen-specific binding activities of the fully human antibodies constructed in the above-described Example. A human or monkey IL-23R-Fc fusion protein was immobilized onto a Maxisorp 384-well plate (Nunc, Inc.) at a concentration of 500 ng/mL. A blocking agent (Blocking One; Nacalai Tesque, Inc.) was added thereto and allowed to stand at room temperature for 1 hour, followed by washing twice with a wash buffer [TPBS: 0.05% Tween-20-containing phosphate buffered saline (PBS)], and each of the purified antibody samples was suitably serially diluted and added thereto. Incubation was performed at room temperature for 1 hour, followed by washing four times with TPBS, and HRP-labeled anti-human IgG antibody (DAKO) which was 2000-fold diluted with dilution buffer (Blocking One which was two-fold diluted with PBS) was added as secondary antibody. Incubation was performed at room temperature for 1 hour, followed by washing four times with a washing buffer. […] of BM-chemiluminescence ELISA substrate (POD) (Roche Diagnostics) that is a reagent for detecting chemiluminescence was added thereto and the amount of chemiluminescence was measured with an EnVision counter (Perkin Elmer). Each of the antibodies was tested in duplicate, and the EC 50 was analyzed by curve fitting.
Background: ELISA stands for enzyme-linked immunosorbent assay.

Experiment [2] concerns the target T2, human IL-23R-mouse Fc fusion protein (human; mouse, UniProt Q5VWK5 24-353).
T2 construct: Expressed in FreeStyle 293 cells; also called human IL-23R-Fc fusion protein; not shown: Fc region of mouse immunoglobulin IgG2a as encoded by vector pFUSE-mIgG2A-Fc2 (InvivoGen); limits and any linker not sta
T2 sequence: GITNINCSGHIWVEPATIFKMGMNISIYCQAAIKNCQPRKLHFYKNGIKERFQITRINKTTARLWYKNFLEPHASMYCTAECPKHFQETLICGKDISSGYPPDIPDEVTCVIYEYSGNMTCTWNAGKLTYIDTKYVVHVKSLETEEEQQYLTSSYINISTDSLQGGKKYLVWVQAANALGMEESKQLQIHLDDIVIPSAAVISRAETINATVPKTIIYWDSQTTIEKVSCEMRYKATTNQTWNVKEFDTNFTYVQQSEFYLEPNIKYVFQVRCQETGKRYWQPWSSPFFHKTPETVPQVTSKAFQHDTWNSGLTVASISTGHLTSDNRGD
The experiment can be described thus: antigen ELISA, human IL-23R-mouse Fc immobilized, HRP anti-human IgG, chemiluminescence. The method, then:
as §1

Experiment [3] addresses T3, human IL-23R on Kit-225 cells (human, UniProt Q5VWK5 24-629).
T3 sequence: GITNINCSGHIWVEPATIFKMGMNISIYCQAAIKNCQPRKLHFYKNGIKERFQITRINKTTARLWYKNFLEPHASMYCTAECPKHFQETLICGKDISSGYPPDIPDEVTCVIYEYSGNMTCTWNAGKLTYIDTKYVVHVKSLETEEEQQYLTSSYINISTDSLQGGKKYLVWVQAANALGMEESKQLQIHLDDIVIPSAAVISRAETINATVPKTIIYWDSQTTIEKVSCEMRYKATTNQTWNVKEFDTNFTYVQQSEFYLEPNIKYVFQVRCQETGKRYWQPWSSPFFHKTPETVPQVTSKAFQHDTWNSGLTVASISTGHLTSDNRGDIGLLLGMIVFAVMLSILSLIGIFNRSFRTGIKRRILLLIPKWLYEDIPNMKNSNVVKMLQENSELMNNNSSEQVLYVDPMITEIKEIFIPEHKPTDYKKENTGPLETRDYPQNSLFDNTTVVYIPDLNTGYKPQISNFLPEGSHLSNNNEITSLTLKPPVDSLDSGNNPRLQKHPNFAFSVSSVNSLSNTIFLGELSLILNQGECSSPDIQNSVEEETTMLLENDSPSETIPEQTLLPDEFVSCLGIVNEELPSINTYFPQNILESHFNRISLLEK
The experiment can be described thus: cell-based or functional assay.

Experiment [4] deals with T2, human IL-23R-mouse Fc fusion protein. Put plainly: antigen ELISA, human IL-23R-mouse Fc immobilized, HRP anti-mouse Ig, chemiluminescence. The method, then: (§2) The present inventors used an antigen ELISA to measure the antigen-specific binding activity of the antibody. The human or monkey IL-23R-Fc fusion protein was immobilized onto a Maxisorp 384-well plate (Nunc, Inc.) at a concentration of 500 ng/mL. A blocking agent (Blocking One; Nacalai Tesque, Inc.) was added thereto and allowed to stand at room temperature for 1 hour, followed by washing twice with a wash buffer [TPBS: a phosphate buffered saline (PBS) containing 0.05% Tween-20], and the purified antibody samples were suitably serially diluted and added thereto. Incubation was performed at room temperature for 1 hour, followed by washing four times with TPBS, and HRP-rabbit anti-mouse Ig antibody (DAKO) which was 2000-fold diluted with a dilution buffer (Blocking One which was two-fold diluted with PBS) was added. Incubation was performed at room temperature for 1 hour, followed by washing four times with a wash buffer. 40 μL of BM-chemiluminescence ELISA substrate (POD) (Roche Diagnostics), which is a reagent for detecting chemical luminescence, was added, and the amount of chemiluminescence was measured with an EnVision counter (Perkin Elmer). Each antibody was tested in duplicate and the EC50 was analyzed by curve fitting. […]

Experiment [5] has as its target T1, monkey IL-23R-mouse Fc fusion protein. The experiment can be described thus: antigen ELISA, monkey IL-23R-mouse Fc immobilized, HRP anti-mouse Ig, chemiluminescence. The method, then: as §2

Usually EC50 stands for the midpoint of the concentration-response curve.

B1: fully human 25-3-1 (antibody, human IgG1, kappa, V domains shown)
VH: QVQLQESGPGLVKPSQTLSLTCSVSGGSIDSGDHYWTWIRQHPGKGLEWIGYIYSSGHTYYSPSLKSRVTISVDTSKNQFSLRLSSVTAADTAVYYCARVGDYEWFDTWGQGTLVTVSS
VL: DIVMTQSPDSLAVSLGERATINCKSSQTILYPSNNMNYLGWYQQRAGQSPRLLIYWASTRESGVPDRFSGSGSGTDFTLTISSLQAEDVAVYYCQQYYSSLPTFGQGTKVEIKR
notes: human Ig gamma1 / kappa
On to B1, for which the EC50 in experiment [1] amounted to 0.0124 µg/mL; in experiment [2] it was 0.0176 µg/mL. Further, in experiment [3], the “Human IL-23-inducible Kit-225 cell proliferation inhibitory activity, IC50” value stood at 3.09 ng/mL.

B2: 25-3 (chimeric) (antibody, V domains shown)
VH: B1 VH with L11Q, K45E, G46V, V69L, I71M, V73L
VL: B1 VL
notes: also called antibody (chimeric antibody) named 25-3
For the molecule B2, the EC50 was 0.021 µg/mL in experiment [4] and 0.028 µg/mL in experiment [5].

B3: fully human 25-3-2 (antibody, human IgG1, kappa, V domains shown)
VH: B1 VH
VL: B1 VL with R45K, A46P
notes: human Ig gamma1 / kappa
Turning to B3, the values for the EC50 in experiment [1] and in experiment [2] were 0.0122 µg/mL and 0.0164 µg/mL, respectively. Further, in experiment [3], the “Human IL-23-inducible Kit-225 cell proliferation inhibitory activity, IC50” value turned out to be 2.66 ng/mL.

B4: fully human 25-3 (antibody, human IgG1, kappa, V domains shown)
VH: B1 VH with L11Q, K45E, G46V, V69L, I71M, V73L
VL: B1 VL
notes: Human Ig gamma1 / human kappa constant regions; expressed in CHO-K1SV cells; also called fully human antibody of 25-3
B4: the figures for the EC50 in experiment [1] and in experiment [2] were 0.0123 µg/mL and 0.019 µg/mL, respectively. Also, the “Human IL-23-inducible Kit-225 cell proliferation inhibitory activity, IC50” value in experiment [3] was 2.25 ng/mL.

B5: fully human 25-3-4 (antibody, human IgG1, kappa, V domains shown)
VH: B1 VH with D30S
VL: B1 VL with R45K, A46P
notes: human Ig gamma1 / kappa
B5: the EC50 in experiment [1] was found to be 0.0121 µg/mL; in experiment [2] it was 0.0223 µg/mL. Moreover, the “Human IL-23-inducible Kit-225 cell proliferation inhibitory activity, IC50” value in experiment [3] was 3.48 ng/mL.

B6: fully human 25-3-3 (antibody, human IgG1, kappa, V domains shown)
VH: B1 VH with D30S
VL: B1 VL
notes: human Ig gamma1 / kappa
With B6, the concentration for a half-maximal effect (EC50) in experiment [1] is 0.0121 µg/mL; in experiment [2] it was 0.0221 µg/mL. For the same molecule, the “Human IL-23-inducible Kit-225 cell proliferation inhibitory activity, IC50” value in experiment [3] was determined as 5.68 ng/mL.
